Data reported in patent US20240360176A1 (MARSHALL UNIVERSITY RESEARCH, published 2024).

Target: Src kinase (human, endogenous in the HCC cell lines HEP3B and SNU475) (human, UniProt P12931 2-536, phosphorylation read out with a polyclonal antibody to Tyr419 of Src kinase)
Test: cell-based or functional assay

B1: pNaKtide (peptide)
peptide: not shown
cell proliferation (MTT assay), IC50, Hep3 cells: 62.5 µM
cell proliferation (MTT assay), IC50, SNU475 cells: 6 µM
